Source: publication PMC8533620, “The Role of the C-Terminal Lysine of S100P in S100P-Induced Cell Migration and Metastasis” (Biomolecules, 2021)
Several values for one entry are separate records, joined by “and”; a condition that tells them apart may be missing. Equal values may be shown once.

T1: recombinant protein consisting of the 149 C-terminal amino acids of NMMIIA (UniProt P35579 1812-1960)
T1 construct: non-muscle myosin heavy chain isoform IIA (NMMIIA), the 149 C-terminal amino acids; also called rNMMIIA; recombinant C-terminal fragment of non-muscle myosin II heavy chain; source: recombinant
T1 sequence (looked up): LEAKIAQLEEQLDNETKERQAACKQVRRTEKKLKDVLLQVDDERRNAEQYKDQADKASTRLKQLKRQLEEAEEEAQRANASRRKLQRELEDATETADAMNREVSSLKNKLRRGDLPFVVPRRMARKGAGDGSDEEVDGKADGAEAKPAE

B1: ΔK95 mutant recombinant S100P protein (natural protein, human, UniProt P25815 1-95, looked up)
chain: MTELETAMGMIIDVFSRYSGSEGSTQTLTKGELKVLMEKELPGFLQSGKDKDAVDKLLKDLDANGDAQVDFSEFIVFVAAITSACHKYFEKAGL
notes: S100P, human, with the C-terminal lysine (K95) deleted, so that the chain ends with leucine 94; Identity confirmed by mass spectrometry; also called ΔK95 S100P; ΔK95 mutant rS100P; source: recombinant protein from pET15b vector after site-directed mutagenesis; details in Supplementary Methods S1
B2: wild-type recombinant S100P protein (natural protein, human, UniProt P25815 1-95, looked up)
chain: MTELETAMGMIIDVFSRYSGSEGSTQTLTKGELKVLMEKELPGFLQSGKDKDAVDKLLKDLDANGDAQVDFSEFIVFVAAITSACHKYFEKAGLK
notes: S100P, human, 95-amino-acid monomer; cDNA encoding the wild-type protein in pET15b; primers on GenBank NM_005980 run from the ATG (95) to the stop codon (382); also called rS100P; wild-type rS100P; source: recombinant protein from a cDNA in pET15b vector; details in Supplementary Methods S1
B3: K95A mutant recombinant S100P protein (natural protein, human, UniProt P25815 1-95, looked up)
chain: MTELETAMGMIIDVFSRYSGSEGSTQTLTKGELKVLMEKELPGFLQSGKDKDAVDKLLKDLDANGDAQVDFSEFIVFVAAITSACHKYFEKAGLA
notes: S100P, human, 95 amino acids, with the C-terminal lysine replaced by alanine; Identity confirmed by mass spectrometry; also called K95A S100P; K95A mutant rS100P; source: recombinant protein from pET15b vector after site-directed mutagenesis; details in Supplementary Methods S1

Biological target: T1, recombinant protein consisting of the …
Assay: resonant mirror biosensor (IAsys); rNMMIIA immobilised, rS100P variants in solution; dual-channel IAsys resonant mirror biosensor; association and dissociation curves fitted a single-site model at least as well as a two-site model; equilibrium and kinetic Kd
Details: both partners purified

Binder	Kd
B1	2700 nM and 6000 nM
B2	370 to 470 nM
B3	2300 nM and 4100 nM
